Experimental data as given in publication PMC5986797, “Laminin heparin-binding peptides bind to several growth factors and enhance diabetic wound healing” (Nature Communications, 2018).

Experiments:
Parameters in all cases: species or system human
Conditions in all cases: 1 µg/mL LG domain coated; 1 μg/mL GF; vs BSA-coated wells; n = 4
PDGF-BB = assay: ELISA: PDGF-BB binding to laminin LG domain / laminin peptide
Method: (§1) ELISA tests were performed as described above. In brief, ELISA plates were coated with 1 μg/mL of laminin alpha 3 LG domain recombinant protein, laminin alpha 4 LG domain recombinant protein (R&D Systems), laminin alpha 5 LG domain recombinant protein (LD BioPharma), or laminin peptide (sequences are described in Supplementary Table 1, chemically synthesized by Genscript) in PBS for 2 h at 37 °C. A concentration of 1 μg/mL of BSA served as non-binding protein control. After blocking with 2% BSA PBS-0.05% Tween 20 (PBS-T) solution, 1 μg/mL of the recombinant human proteins (VEGF-A121, VEGF-A165, PlGF-1, PlGF-2, PDGF-BB, or FGF-2) or 10 μg/mL of biotinylated heparin (Sigma-Aldrich) were added. Bound GF was detected with biotinylated antibodies for human VEGF-A, PlGF, PDGF-BB (R&D Systems, Catalog No. DY220, 1:180 dilution), or FGF-2 (R&D Systems). The antibodies were detected by streptavidin-HRP (R&D Systems).

VEGF-A165 = assay: ELISA: VEGF-A165 binding to laminin LG domain / laminin peptide
Method: as §1, with “ELISA plates were coated with 1 μg/mL of laminin alpha 3 LG domain” left out

FGF-2 = assay: ELISA: FGF-2 binding to laminin LG domain / laminin peptide
Method: as §1

VEGF-A121 = assay: ELISA: VEGF-A121 binding to laminin LG domain / laminin peptide
Method: as §1

PlGF-1 = assay: ELISA: PlGF-1 binding to laminin LG domain / laminin peptide
Method: as §1

PlGF-2 = assay: ELISA: PlGF-2 binding to laminin LG domain / laminin peptide
Method: as §1

- binding to PDGF-BB (ELISA), recombinant LG domains (PDGF-BB): bound
- binding to VEGF-A165 (ELISA), recombinant LG domains (VEGF-A165): bound
- binding to FGF-2 (ELISA), recombinant LG domains (FGF-2): bound
- binding to VEGF-A121 (ELISA), recombinant LG domains (VEGF-A121): did not show any binding
- binding to PlGF-1 (ELISA), recombinant LG domains (PlGF-1): did not show any binding
- binding to PlGF-2 (ELISA), recombinant LG domains (PlGF-2): bound
B1: LAMA5_3026–3482: laminin alpha 5 LG domain recombinant protein (LD BioPharma) (protein)
chain: AIQVFLLGGSRKRVLVRVERATVYSVEQDNDLELADAYYLGGVPPDQLPPSLRRLFPTGGSVRGCVKGIKALGKYVDLKRLNTTGVSAGCTADLLVGRAMTFHGHGFLRLALSNVAPLTGNVYSGFGFHSAQDSALLYYRASPDGLCQVSLQQGRVSLQLLRTEVKTQAGFADGAPHYVAFYSNATGVWLYVDDQLQQMKPHRGPPPELQPQPEGPPRLLLGGLPESGTIYNFSGCISNVFVQRLLGPQRVFDLQQNLGSVNVSTGCAPALQAQTPGLGPRGLQATARKASRRSRQPARHPACMLPPHLRTTRDSYQFGGSLSSHLEFVGILARHRNWPSLSMHVLPRSSRGLLLFTARLRPGSPSLALFLSNGHFVAQMEGLGTRLRAQSRQRSRPGRWHKVSVRWEKNRILLVTDGARAWSQEGPHRQHQGAEHPQPHTLFVGGLPASSHSSKLP
